Source: the domain aggregation screens of Martell et al. (2025)

experiment: soluble fraction after stress (log2 fold change); higher = more stays soluble; pooled small domains, quantitative proteomics; details: stress: pH 4
In short: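 Values are on a log2 scale, where higher means more of the domain stayed soluble after pH 4 stress. They are fold changes in the soluble amount of each domain from pooled custom libraries, measured by high-throughput quantitative proteomics. The fold change is taken to reflect aggregation propensity.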

Sequence | soluble fraction (log2)
HMEYKTGIINTNKVRVRNAADADATVIFAINKDIKVKILAEENGFYKIGVSVKNRGNGEDLIGFVKKELIT | 0.3
HMEYQTVEKSEAEQIIQELEKAERLALKVYSKNDIITGISVSDGKSYYFSAELVPMLKNIIENPEIKIL | -1.14
HMEYRVRDKMTDILELLTEHRGRIALRDAFPTGTREELLAAFLALLELTKMQTVIVYQDRLYDDIQIVMK | 0.22
HMEYSTLEIYSQTKKDLIEKSPHLNKVVYDKDDGYIYLLSFEKEDDLTSFKSNIENDSDIKRIEANV | -0.91
HMEYTVNRLAQISGVSKRTLRYYDEIGLLRPERVNPNGYRIYGQMQVDLLQQILFYRELGLPLEEIREII | -0.639
HMFAATGVVNAPSGLVLRETASKGGNPLATVPDKAQVEIVEEDGEWYKVKVNEQTGYLFAEFVNKTE | -0.13
HMFAQDQLFKKDNSKVDVKILEINTTEIKYKLFTYQDGPTITVAKKDVALIIYQNGVHEVIT | -1.17
HMFAVPAPEVDDILSEKKVDVLLLGPQVRYLLEQFTEKLKDKNIPIGVIPMVDYGMMNGSKVLALAEELIG | -0.288
HMFDFGNHLRMLREKHGISQEELGRRVGRAGSVISNYENNIKIPTLDVLTTMARIYDVSLDYLVG | -1.06
HMFDFNNLSSLSDVELSVYRFVVNNPEKVAYMRVRDIAQKTHVANSSVMRFVHKIGFASFPEFKAYLKNIN | -0.0916
HMFDITKEVLKQSGLYNLYKNDESLEGINRIQNIEELLNGIKDFVENNEKSQASVSSFLQDVALATDQ | -0.217
HMFDKVSVNNLAEAIGRLDGIYQDVLRLYYVHELPSKEIGKILNINHLTVNTRLKRAREKLFKMLKEE | -0.812
HMFDNPLSERDKEILNHISMGKSNKEIANQVGLAEQTIKNTISVILDKTFTSNRAQAASMATKNKW | -0.0659
HMFDPTDLPEKQLMVYEIIKSNNGINMTNIASLLGFNKTTVDNAIRALKKKEIVVFKGTNRSGGYFNT | 0.193
HMFEDEYLETMYAFYETDPQALVRTGDLASSLKVSPASATEMVQRLASKGFVDYIPYKGASLTELGLAM | -0.438
HMFEDYLRMKGLSIVSFSKQTGIPISTLRNLNKIRYDKWKIRYLEELSNVLNKTIQEIIEELKNMG | -1.32
HMFEFFKGIYSISLLKKDGIFFVTFKDENKEAVKHIFPEKPTALELGIKVMEMFEYKERYDGII | -0.226
HMFEPLTDREREVLQALADGLSDKEIAERLYISPATVRTHITAILGKLDANSRLQAVVVAARHNLVTL | -0.926
HMFERISELLTDEELAVYKRGRNANASSVPKHADIADYRRATGVEALFGYLYIKGEIDRINQLFELA | -0.635
HMFESQYIGKIATAITDISAFSGRLKIYDENWEARTLGEDAPEIKKGAKVKIVRHDDLTMFVEKK | 0.087
HMFETLVLALAQAWPAERGPVEALQFEGGRLSLQRSGFADEQVEALRQRLSSEGWTLQTEQGRLILNKAG | -1.11
HMFFDSDTDIQNALNAENSIKKYQLFRTQTLYNSAQSDIDFVNQPEVKAKLFDALENLKNKLGFLAEPT | -0.4
HMFGIEIPEEAGKLQDYTLTDDDLEGGNTLKEIQFPQGARVVIIRRDDKFIIPDGSVELQSGDQLLIIYGE | -1.81

Sequence | soluble fraction (log2)
HMFGSKDVKRAIEDYAAAMSSQPRALSAPQRKVLIRHLATSGLLQLRGAAKIVADELGISRASVYNALKV | 0.193
HMFHDPTMEETLINLKGITNEVLSLLSSSKIKKLEDLAEMSVPELRDIVENISDEEASALIMEARKPWF | -1.81
HMFHGEGVQANNIQAYIVLKMAAVNGAEDALDTADEVSEKMSREDLETATQVLGQIFRKYLMELQSA | -1.12
HMFIKVEVPDLTGMTLTEVRKALEEKNLKMGDIRPAGQTSLVAKVINQSPQAKMVVDEYSEVSIQFEE | 0.166
HMFIMQTVALGSEGPDVRALQSILNRIGYNAGTVDGIFGSRTRQAVIAFQRNNGLAADGVAGPATWG | -0.0509
HMFINITAITGNNYNTPDAARNALPNTYNKKIGLVFTYRDLTNRYRVYLYNSETSNYIPLDSYM | -1.28
HMFIPGDSVRVHVKVVEGSNERIQMFEGVVIARQGSGVRENFTVRRISYGVGIERTFPVHSPRL | -0.62
HMFISVDGLIHMGRTHLVILGGVEFARGDMIPETGEVVKSIGADSVVLELPDTGMRRTLNFV | -1.91
HMFKINNIIVSGLSEKSNLQTSEEIKNILFENIFFIKKDVLFKILEKNNLINSFEIKKIYPDTIEVKIKKT | -0.104
HMFKITNTLNKTAEVYLTIPENKKGKGKIMISVNGAFHELEAMTENDKIQSGAVVKVVRIENDNILIVET | -1.96
HMFKMRVNGKEVIGMAITAKPQANPIDVADEIKKFVIDANTKLPSTMKLEVLYDATGIFRASISEVIS | -0.86
HMFLDKDTLNQLYRFGIALTGNEQDSQDVLHTAIERFLRNKPQQINQQAAYIRTIMRNYWYDELRKLKTQ | -0.0981
HMFLPETEVKSFFHRGITKISPSLAMDIADFFRMPFAVILKRALALEVISDEQYRSFMTVKPEHV | -0.0531
HMFLSQQDINRANAASVTDMGDIIRRTFERNAAEINGLELSDAEKKDAVKQMATLATTALKTAAGAVNPY | 0.152
HMFLSSEERRERIIEVLRQQDEVTVVELSHRLGVSEVTTRKDLQQLEEQGYLTRVRGGAVVSGRGQL | -0.458
HMFMNFAEHLMALRKQRGWSQEELGSQIGVTRQTVSKWEMGQSTPELEKLVELSRLFGMSIDQLVGL | -0.00635
HMFNISEKLKKYRNALGLTQTEVAEKIEITKPTYASYEKGKDISIGTLKKLADLFEVSFESFFSE | -0.336
HMFNLFPHLSVLRNITLAPQKVKGLNRSESNEIAMSLLERVGIPEQSDKFPSQLSGGQQQRVAIARALAM | 0.22
HMFPELSEEEQIIVSLLQKQPDGLQINTLVVESNIPVNRMSGILFELEMKGIIRMAAGGVYRLL | -0.785
HMFQEGLVAPPAYTRPESFRGWEVPEILRSGNFPAIAKWQHEESLRLTRERRPAMLEAYERRT | -0.415
HMFQNYTDAVVVASKTFFYNMPDESTRKSAYLIQGDRIMVEKSQRNFVYVTFTNEASGRTTTGWLKSDDLE | -0.00722
HMFSDDEINRLKARDSILVNLRDSEKQVWELYTDGKTVQNIANQLNKHKQSISATIINIKNKISRKQNMLK | -0.0225
HMFSGVQLGQAISEAIKRKNVSQKEVADHFGVKQPSVSGWIKNGRIDKKHLDKLIDYFSDVVTPSHFGIE | 0.241

Sequence | soluble fraction (log2)
HMFSQDQIFLRSGEKIDARVIEVTPEFIKYKSKANPEGPLYSKKITDVLLITYANGTTEVYE | -0.749
HMFTDAEIKQFAAAAVEVTKIQQDSTISAADKQPKMLAVVQSSGLPPEKFNQIGQAAAADPALQQRIQA | 0.159
HMFTEPQKLVKRILNMLGHRYDDASIQARSDFQASNNYHKVQVKKKRESMEEYTAWLEEMYDAYRIN | 0.0985
HMFTFEDMDKFESLLTTGLTDVQRRIYSLVTHDGKEYDLIAETLGISVEAVRMHMSRARKKIRENYKKID | -1.7
HMFTIGENIRDLRLERAITQEQLAEQLNVSAPAVSKWERGEAYPDITLVPKLAEILGVSTDKLFGVD | -0.265
HMFTKYSPDFKLSVILDMRKNNLGYGEVVRKYWNLDSYKESDRHRSQVRLWERIFLEEGVEGFM | -1.77
HMFTLDDLQATYDIFERAEQNSDAMLAFQKVITAEGLDFDLTSPQGIVDFFKGAAPTEIYDLYEAS | -0.956
HMFTNSTSSRQLTNSDDTLRLNISSQTRQMLPNGQPFGGSLSGKLLLVIYGATTRSIPAQTTPEKIVV | 0.105
HMFTSVDVAPDLRTAKVFYSVLGRKKSDKEINIAINQKRKAFKKFMGPELHLKNIPDLHFYYD | 0.115
HMFTYDLSERELTIIELVAKGLNNKELADTLFLSEGTIRNYLSTLLNKLDLRDRTQLAIFYYQHL | -2.93
HMFVEEGSLKKITFDTYEFNITDNLKSLRVTYQGLLPNLFREGQGVVIEGILLEQNYIQANTVF | -0.328
HMFVTGTTIKKLREEKRMTQGELAQMIGVSDKAVSKWETGRGLPDISLLEPLSRALGISVAELFAGQH | -0.0399
HMFWEGYLAARREQFLKDQQVLLGNEFRSNPDFWLEVASKEWAVVEERLSTGADVSEEVQETMGLDF | -1.5
HMFYNSSDNAYKILEINKSATVDEIKAAYRKMAKKYHPDKVIHLGQEHQKGAEEKFRQVQEAYEELQKERG | 0.297
HMGAAVEVISLRYRSAAELLPIVRSLLSTEGKISADERTNSLIIVDSDEAVARVIHSLATLDT | -0.851
HMGADGIPGKNGENGETSYVHFAYATSADGKTGFSTTDTVGKTYMGQYADFEKADSEDPTKYRWGKFQGP | ≥ 0.43
HMGAFAIHTASELSAGMRIRHERFGPGVITGIDTANPASGARIQVDFDNGTSKTLLLSYAKFQI | 0.22
HMGAGKVVDGVTYDFVFDVDVADGQPPLRLPYNRGEDVYQAAERFILRNELPATYREQIVNFIVQNTPG | -1.79
HMGAISGEQREFYTVFRGHLNSHVGEFKVEDIENLLMKAKTEVPDLLEEEFLKMGEAILNRYRN | -0.966
HMGAKEHLAGETLRMAVELLSEKQGIPAEQALIRFISSPVYDALYDLDTGMWTQGPTRLLEAFEALE | -1.69
HMGALARLLASVEQELGVTRDRMTRTQKQEAVTLLNEWGAFTLRKSVEDVAEALGVSRFTVYNYLERAEA | -0.866
HMGALSLDMLFDRFDALQEQSMGDKTEGGQELRGMIRTFIEQEKLDIRVTRTTTNAALLEMIEKEMQG | 0.0204
HMGASALTEREREVLRLLEGGGSDKRIARQLAISEHGVRYHLKSIYKKLGVHDRVSAIAAGRRLAS | ≥ 0.43
